These results are taken from US20080166762A1.

This test has as its target IL-1 receptors on MCF-7 cells. As to the kind of experiment: cell-based or functional assay.

As for “recombinant IL-1Ra standard from E. coli (Prospectany) (from UniProt P18510 26-177) (ligand)”, the proliferation of MCF-7 cells (BrdU) in the presence of 50 ng IL-1beta is 20 ng. On the same count and under the same terms, in the case of “Interleukin 1 receptor antagonist (IL-1Ra) secreted by Pichia pastoris x-33/pGAPZαA/IL-1Ra clone 7, partially purified (from UniProt P18510 26-177) (ligand)” it was 40 ng.

“Recombinant human IL-1beta (from UniProt P01584 117-269) (ligand)” registered an inhibition of proliferation of MCF-7 cells (BrdU) of 50 ng.
